Values joined by “and” are separate entries in the source; they are usually repeats but may differ in a detail not shown here. Equal values may be shown once. Each block holds one molecule with its values, some of them ahead of it.
Legend:
[1] = molecular target: mTTYH3 ECD1-T4L-ECD2 (mouse | bacteriophage T4) (UniProt Q6P5F7); test: cross-linking
[2] = molecular target: EGFP fusion of KCNH1 (UniProt O95259); test: single-molecule subunit counting
[3] = molecular target: the molecule itself; test: SEC
[4] = molecular target: the molecule itself; test: native gel or EMSA
[5] = molecular target: the molecule itself; test: single-molecule subunit counting

stoichiometry N [1]: 4
Molecule: mTTYH3 ECD1-T4L-ECD2 (from UniProt Q6P5F7 107-209; Q6P5F7 260-386) (domain or fragment)

stoichiometry N [2]: 4
Molecule: EGFP fusion of KCNH1 (from UniProt O95259 1-989) (natural protein)

B1: mTTYH1-EGFP (C-terminal EGFP fusion of mouse TTYH1), expressed in HEK 293 cells (natural protein, UniProt Q9D3A9 1-450, looked up)
chain: MGAPPGYRPSAWVHLLHQLPRADFQLRPVPSGFAPRDQEYQQALLLVAALAGLGLGLSLIFIAVYLIRFCCCRPPEPHGAKSPPPGGGCVTWSCIAALLVGCAGIGIGFYGNSETSDGVSQLSSALLHANHTLSTIDDVVLETVERLGEAVKTELTTLEEVLSVRMELVAATRGARRQAEAAAQYLQGLAFWQGVSLSPVQVAEDVTFVEEYRWLAYVLLLLLVLLVCLFTLLGLAKQSKWLVVVMTAMSLLVLVLSWGSMGLEAATAVGLSDFCSNPDTYVLNLTQEETGLSSDILSYYFLCNQAVSNPFQQRLTLSQRALASIHSQLQGLEREAIPQFSAAQKPLLSLEETLNVTERSFHQLVALLHCRSLHKDYGSALRGLCEDALEGLLFLMLFSLLSAGALATTLCSLPRAWALFPPSDDYDDTDDDDPFNPQESKRFVQWQSSI
stoichiometry N [3]: 4 and 2

B2: FLAG-tagged mouse TTYH1 (mTTYH1) (natural protein, UniProt Q9D3A9 1-450, looked up)
chain: B1 chain
stoichiometry N [4]: 2 and 4

B3: mTTYH1-EGFP (C-terminal EGFP fusion of mouse TTYH1), expressed in Xenopus oocytes (natural protein, UniProt Q9D3A9 1-450, looked up)
chain: B1 chain
stoichiometry N [5]: 4

B4: mTTYH3-EGFP (C-terminal EGFP fusion of mouse TTYH3), expressed in HEK 293 cells (natural protein, UniProt Q6P5F7 1-524, looked up)
chain: MAGVSYAAPWWVSLLHRLPHFDLRWEATSSQFRPEDADYQQALLLLGATALACLALDLLFLLFYSFWLCCRRRKTDEHLDADCCCTAWCVIITTLVCSAGIAVGFYGNGETSDGIHRATYSLRHANRTVAGVQDRVWDTAAALNRTAEPNLQSLERQLAGRQEPLRAVQRLQTLLGTLLGYTAAIPFWRNPGVSLEVLAEQVDLYDWYRWLGYLGLLLLDVIICLLVLVGLIRSSKGILVGVCLLGVLALVISWGALGLELAVSVGSSDFCVDPDTFVTKMVEEHSVLSGDILQYYLACSPRATNPFQQKLSGSHKALVEMQDVVAELLRNVPREHPATKDPLLRVQEVLNGTEVNLQHLTALVDCRSLHLDYVQALTGFCYDGVEGLIYLALFSFVTALMFSSIVCSIPHTWQQKRGPDDDGEEETAPGPRQAHDSLYRVHMPSLYSCGSSYGSEASIPAAAHTVSNAPVTEYMSQNANFQNPRCENTPLIGRESPPPSYTSSMRAKYLATSQPRPDSSGSGH
ratio of tetramers to dimers [3]: ~1.5
stoichiometry N [3]: 4 and 2

B5: FLAG-tagged mouse TTYH3 (mTTYH3) (natural protein, UniProt Q6P5F7 1-524, looked up)
chain: B4 chain
stoichiometry N [4]: 2 and 4

B6: mTTYH3-EGFP (C-terminal EGFP fusion of mouse TTYH3), expressed in Xenopus oocytes (natural protein, UniProt Q6P5F7 1-524, looked up)
chain: B4 chain
stoichiometry N [5]: 4

Source: publication doi:10.1101/2021.09.05.459021 (bioRxiv, 2021)
